Laboratory results reported in patent US9327008B2, “Cell-permeant peptide-based inhibitor of kinases” (Purdue Research Foundation, priority 2008, dated 2016).

Tests used:
Type in all cases: biochemical
Aurora-A = biological target: T1, Aurora-A (Homo sapiens, UniProt O14965); assay: Millipore radiometric kinase activity assay, Aurora-A (h)
T1 construct: purchased Millipore (assay service)
T1 sequence (O14965 1-403): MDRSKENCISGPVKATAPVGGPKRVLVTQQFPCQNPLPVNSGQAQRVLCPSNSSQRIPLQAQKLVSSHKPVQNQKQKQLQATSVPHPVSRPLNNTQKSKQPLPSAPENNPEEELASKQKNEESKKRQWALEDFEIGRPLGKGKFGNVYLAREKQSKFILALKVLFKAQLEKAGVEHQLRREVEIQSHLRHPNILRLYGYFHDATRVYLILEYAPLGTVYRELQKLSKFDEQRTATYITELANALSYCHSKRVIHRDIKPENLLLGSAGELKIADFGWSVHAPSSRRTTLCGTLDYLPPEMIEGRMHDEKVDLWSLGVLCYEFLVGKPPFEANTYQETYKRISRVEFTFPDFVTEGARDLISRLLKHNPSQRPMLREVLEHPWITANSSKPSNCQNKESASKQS
Description: (§1) A commercial radiometric assay service (Millipore, Billerica, Mass.) was used to test the specificity and potency of peptides containing a coupled transduction domain and therapeutic domain, hereinafter “complete peptides”). In these assays, if the kinase is not inhibited by an inhibitor peptide, a positively charged substrate is phosphorylated with a radiolabeled phosphate group from an ATP.
(§2) In a final reaction volume of 25 μL, Aurora-A (h) (5-10 mU) is incubated with 8 mM MOPS pH 7.0, 0.2 mM EDTA, 200 μM LRRASLG [SEQ ID NO: 50] (Kemptide), 10 mM MgAcetate and [γ-^33P-ATP] (specific activity approx. 500 cpm/pmol, concentration as required). The reaction is initiated by the addition of the MgATP mix. After incubation for 40 minutes at room temperature, the reaction is stopped by the addition of 5 μL of a 3% phosphoric acid solution. 10 μL of the reaction is then spotted onto a P30 filtermat and washed three times for 5 minutes in 50 mM phosphoric acid and once in methanol prior to drying and scintillation counting.
(§3) IC50 values for inhibitor peptides were determined using Millipore's IC50Profiler Express service. The IC50 value was estimated from a 10-point curve of one-half log dilutions. For peptides tested for specificity, the concentration of the peptides that inhibited approximately 95% of MK2 activity was chosen to profile against a battery of kinases related to MK2, cell viability, or human disease from MilliporeKinaseProfiler service. In both assays, compounds were supplied in dimethylsulfoxide (DMSO). Every kinase activity measurement was conducted in duplicate.
(§4) Therapeutic inhibitor peptides were assayed for activity against human kinases related to MK2, cell viability, or human disease. The assays were performed using concentrations of therapeutic inhibitor peptides that yielded 2% to 8% of normal MK2 activity. Error is reported as the standard deviation between 2 samples, and “c” is rat AMPK whereas all other kinases used are human kinases.

PDGFRβ = biological target: T2, PDGFRβ (Homo sapiens, UniProt P09619); assay: Millipore radiometric kinase activity assay, PDGFRβ (h)
T2 construct: purchased Millipore (radiometric assay service)
Description: as §1
as §2, with “μL, PDGFRβ” for “μL, Aurora-A”, “EDTA, 0.1 mg/mL poly(Glu, Tyr) 4:1, 10 mM MnCl2,” for “EDTA, 200 μM LRRASLG [SEQ ID NO: 50] (Kemptide),”, “a Filtermat A” for “a P30 filtermat”, “in 75” for “in 50”
as §3, §4

PKA = biological target: T3, PKA (Homo sapiens, UniProt P17612); assay: Millipore radiometric kinase activity assay, PKA (h)
T3 construct: purchased Millipore (radiometric assay service)
Description: as §1
as §2, with “PKA” for “Aurora-A”, “30” for “200”, “solution,” for “solution.”
as §3, §4

Ret = biological target: T4, Ret (Homo sapiens, UniProt P07949); assay: Millipore radiometric kinase activity assay, Ret (h); settings: peptide 100 μM
T4 construct: purchased Millipore (radiometric assay service)
Description: as §1
as §2, with “25 μL, Ret (h) (5-10” for “25 μL, Aurora-A (h) (5-10”, “mM EDTA, 250 μM […]” for “mM EDTA, 200 μM LRRASLG”, “250 μM […] [SEQ ID” for “200 μM LRRASLG [SEQ ID”, “ID NO: 56], 10 mM” for “ID NO: 50] (Kemptide), 10 mM”, “of 5 μl, of a” for “of 5 μL of a”, “minutes in 75 mM phosphoric” for “minutes in 50 mM phosphoric”
IC50 values for inhibitor peptides were determined using Millipore's IC50Profiler Express service. The IC50 value was estimated from a 10-point curve of one-half log dilutions. […]

Src (residues 1-530) = biological target: T5, Src (residues 1-530) (Homo sapiens, UniProt P12931); assay: Millipore radiometric kinase activity assay, SRC (1-530) (h)
T5 construct: SRC (1-530) (h) (5-10 mU) is incubated; purchased Millipore (radiometric assay service)
Description: as §1
as §2, with “μL, SRC (1-530)” for “μL, Aurora-A”, “EDTA,[…]” for “EDTA, 200 μM LRRASLG”, “NO: 58],” for “NO: 50] (Kemptide),”, “in 75” for “in 50”
as §3, §4

T2 sequence (P09619 33-1106): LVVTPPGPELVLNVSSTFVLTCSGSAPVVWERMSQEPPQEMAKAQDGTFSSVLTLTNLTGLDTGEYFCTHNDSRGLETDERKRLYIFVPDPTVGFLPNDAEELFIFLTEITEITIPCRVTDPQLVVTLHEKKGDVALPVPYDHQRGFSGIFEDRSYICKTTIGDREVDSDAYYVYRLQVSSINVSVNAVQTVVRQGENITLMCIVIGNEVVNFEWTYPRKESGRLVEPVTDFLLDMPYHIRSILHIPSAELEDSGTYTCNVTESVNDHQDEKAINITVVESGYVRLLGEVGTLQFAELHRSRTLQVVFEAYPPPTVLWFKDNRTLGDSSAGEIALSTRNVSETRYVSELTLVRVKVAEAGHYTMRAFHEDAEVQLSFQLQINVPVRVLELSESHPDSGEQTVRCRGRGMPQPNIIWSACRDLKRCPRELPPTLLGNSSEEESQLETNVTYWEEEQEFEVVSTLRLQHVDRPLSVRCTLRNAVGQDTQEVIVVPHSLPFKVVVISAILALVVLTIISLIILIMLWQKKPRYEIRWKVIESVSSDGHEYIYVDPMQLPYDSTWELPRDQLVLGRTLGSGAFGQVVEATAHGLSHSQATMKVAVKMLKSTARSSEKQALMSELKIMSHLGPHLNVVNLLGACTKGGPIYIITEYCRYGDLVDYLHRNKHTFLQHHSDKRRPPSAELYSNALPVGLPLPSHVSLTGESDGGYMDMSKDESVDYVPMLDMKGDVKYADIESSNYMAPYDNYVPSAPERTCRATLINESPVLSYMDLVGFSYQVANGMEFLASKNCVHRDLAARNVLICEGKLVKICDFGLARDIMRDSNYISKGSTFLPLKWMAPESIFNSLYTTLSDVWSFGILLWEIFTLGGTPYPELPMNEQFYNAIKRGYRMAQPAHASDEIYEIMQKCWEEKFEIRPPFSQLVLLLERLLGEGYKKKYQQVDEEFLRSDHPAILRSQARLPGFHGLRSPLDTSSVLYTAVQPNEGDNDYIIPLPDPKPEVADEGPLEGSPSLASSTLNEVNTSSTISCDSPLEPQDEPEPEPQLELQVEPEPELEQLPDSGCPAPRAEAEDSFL
T4 sequence (P07949 29-1114): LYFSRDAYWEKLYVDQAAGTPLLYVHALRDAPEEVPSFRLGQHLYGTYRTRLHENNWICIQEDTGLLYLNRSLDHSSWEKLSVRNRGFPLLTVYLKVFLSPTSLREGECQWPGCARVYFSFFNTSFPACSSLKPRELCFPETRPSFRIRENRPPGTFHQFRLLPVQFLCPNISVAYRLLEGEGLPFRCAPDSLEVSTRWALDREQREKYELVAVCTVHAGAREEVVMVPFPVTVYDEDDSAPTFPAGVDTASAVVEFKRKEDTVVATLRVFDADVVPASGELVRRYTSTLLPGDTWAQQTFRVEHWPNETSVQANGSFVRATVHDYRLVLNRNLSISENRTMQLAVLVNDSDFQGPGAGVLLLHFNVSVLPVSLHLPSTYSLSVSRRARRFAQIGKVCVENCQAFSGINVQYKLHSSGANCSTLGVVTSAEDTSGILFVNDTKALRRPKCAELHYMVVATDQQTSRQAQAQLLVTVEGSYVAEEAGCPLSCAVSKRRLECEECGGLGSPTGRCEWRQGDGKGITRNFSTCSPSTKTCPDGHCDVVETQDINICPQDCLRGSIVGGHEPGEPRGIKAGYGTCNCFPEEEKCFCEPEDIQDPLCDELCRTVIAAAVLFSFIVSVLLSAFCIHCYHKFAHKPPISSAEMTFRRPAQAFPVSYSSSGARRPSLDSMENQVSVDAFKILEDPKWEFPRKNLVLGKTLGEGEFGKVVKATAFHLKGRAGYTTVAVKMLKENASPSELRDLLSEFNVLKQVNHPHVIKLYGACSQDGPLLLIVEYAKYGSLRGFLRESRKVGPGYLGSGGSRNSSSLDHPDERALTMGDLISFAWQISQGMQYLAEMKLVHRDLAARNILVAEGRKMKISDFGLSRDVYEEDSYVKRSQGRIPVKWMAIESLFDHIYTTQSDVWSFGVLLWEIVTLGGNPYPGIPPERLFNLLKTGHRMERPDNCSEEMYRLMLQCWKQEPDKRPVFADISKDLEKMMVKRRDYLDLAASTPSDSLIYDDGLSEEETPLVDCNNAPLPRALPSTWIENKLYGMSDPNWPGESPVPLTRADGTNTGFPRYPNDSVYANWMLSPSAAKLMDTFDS

## WLRRIKAWLRRIKALNRQLGVAA
Aurora-A; peptide 30 μM
  Aurora-A Kinase Activity (%) (+SD %): 46 (1) %
Aurora-A; peptide 100 μM
  Aurora-A Kinase Activity (%) (+SD %): 65 (5) %
PDGFRβ; peptide 30 μM
  PDGFRβ Kinase Activity (%) (+SD %): 42 (4) %
PDGFRβ; peptide 100 μM
  PDGFRβ Kinase Activity (%) (+SD %): 92 (4) %
PKA; peptide 30 μM
  PKA Kinase Activity (%) (+SD %): 80 (1) %
PKA; peptide 100 μM
  PKA Kinase Activity (%) (+SD %): 76 (8) %
Ret
  Ret Kinase Activity (%) (+SD %): 89 (0) %
Src (residues 1-530); peptide 30 μM
  Src (residues 1-530) Kinase Activity (%) (+SD %): 6 (1) %
Src (residues 1-530); peptide 100 μM
  Src (residues 1-530) Kinase Activity (%) (+SD %): 5 (1) %

## KAFAKLAARLYRKALARQLGVAA
Aurora-A; peptide 100 μM
  Aurora-A Kinase Activity (%) (+SD %): 60 (1) %
PDGFRβ; peptide 100 μM
  PDGFRβ Kinase Activity (%) (+SD %): 66 (8) %
PKA; peptide 100 μM
  PKA Kinase Activity (%) (+SD %): 103 (1) %
Ret
  Ret Kinase Activity (%) (+SD %): 107 (9) %
Src (residues 1-530); peptide 100 μM
  Src (residues 1-530) Kinase Activity (%) (+SD %): 3 (0) %
